In article PMC12768534 (Science immunology, 2025):

Target: mIL-21 (mouse, UniProt Q9ES17 18-146)
Test: BLI; mIL-21 and 21h10 incubated in PBS or murine serum for 1-240 minutes at 37°C, then binding to mIL-21R
Conditions: both partners purified

B1: biotinylated mIL-21R (receptor)
chain: not shown
modifications: biotin (biotinylated)
notes: murine IL-21 receptor, biotinylated recombinant protein; Held on streptavidin biosensors by its biotin; limits and tags are the vendor's; also called murine IL-21 receptor; source: bought: Acro Biosystems Cat# ILR-M82E3
B1: binds.
